This data set in a line: yeast display, Sf9 membrane polyspecificity reagent, FACS + sequencing; frameworks hold sequencing errors. Put shortly:
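Polyreactivity labels are assigned by the sorting gate from which each nanobody was recovered. The gates were low and high (top ~1%), set on anti-HA fluorescence for expression and streptavidin fluorescence for reagent binding. Before sorting, galactose-induced (36–48 hours) yeast display cells were stained for 1 hour at 4 °C with 10% biotinylated, detergent-solubilized Sf9 membrane reagent.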
“QVQLVESGGGLVQAGGSLRLSCAASGFTFSNYTMGWYRQAPVKERELVARITTRGTSTYYADSVKGRFTISRDNAKNTVYLQMNSLKPEDTAVYYCNARARYPRGYEYDYWGQGTQVTVSS”: the “polyreactivity (PSR sort gate)” value is “high polyreactivity”.

Consider “QVQLLESGGGLVQAGGSLRLSCAPSGSTIAWYAMGWYIHAPGKERELVAAITQSGGSTYYADSVKGRFTISRDNEKNTVYLLMIRLKPEDTAVYYCAAYPGYAKYRYDFWGPGTQVTVSS”, for which the “polyreactivity (PSR sort gate)” value is given as “high polyreactivity”.

“QVQLVESGGGLVQAGGSLRLSCAASGSTFDDYAMGWYRQAPGKERELVAAINSDCGGTYYADSVKGRFTISRDNAKNTVYLQMNSLKPEDTAVYYCNVEYEDYYAQRYGYDYWGQGTQVTVSS”: the “polyreactivity (PSR sort gate)” value is recorded as “low polyreactivity”.

On to “QVQLVESGGGLVQAGGSLRLSCAASGSIFWYNAMGWYRQAPGKERELVAGITSGGDTNYADSVKGRFTISRDNAKNTVYLQMNSLKPEDTAVYYCAKRWYGGRRYDYWGQGTQVTVSS”, for which the “polyreactivity (PSR sort gate)” value is listed as “low polyreactivity”.

As for “HVQLVESGGGLVQAGGSLRLSCAASGIIFITNAMGWYRQAPGKERELVAAISSTVSTYYADSVKGRFTISRDKAKNTVYLQMNRLKPADTAVYYCAAEWGLTQGESIYDYWGQGTQVTVSS”, the “polyreactivity (PSR sort gate)” value is on record as “low polyreactivity”.

Take “QVQLVESGGGLVQAGGSLRLSCAASGLIFTYYAMGWYRQAPGKERELVAAINYSGGSTYYADSVKGRFTISRDNAKNTVYLQMNSLKPEDTAVYYCAARRVTQTEGPMGYWGQGTQVTVSS”: the “polyreactivity (PSR sort gate)” value is listed as “low polyreactivity”.

Regarding “QVQLVESGGGLVQAGGSLRLSCAASGFIFAEYAMGWYRQAPGKERELVAAITSGGSTSYADSVKGRFTISRDNAKNTVYLQMNSLIPEDTAVYYCAATWYYHYNDWKHWYEYGYWGQGTQVTVSS”, the “polyreactivity (PSR sort gate)” value was “low polyreactivity”.

With “QVQLVESGGGLVQAGGSLRLSCAASGRISGFYTMGWYRQAPGKERELVATITRSGSRTYYADSVKGRFTISRDNAKNTVYLQMNSLKPEDTAVYYCARSQAVYDGWFAKFGYWGQGTQVTVSS”, the “polyreactivity (PSR sort gate)” value is on record as “low polyreactivity”.

Consider “QVQLVESAGGLVQAGGSLRLSCAASGSTFYPYAIGWYRQAPGKERELVAAISSGGSTYYADSVKGRFTISRDNAKNTVYLQMNSLKPEDTAVYYCAADFYYAYYWGQGTQVTVSS”, for which the “polyreactivity (PSR sort gate)” value was “low polyreactivity”.

“QVQLQECGCGLVQAGCSLRLSCAASGTFSNSLKWLYCQAPGKEREFVATIGVGGSTNYADSVKGRFTISRDNAKNTVYLQMNSLKPEDTAVYYCAARLDTVTDYYYWGQGTQVTVSS”: the “polyreactivity (PSR sort gate)” value is “low polyreactivity”.

With “QVQLVEAGGGLVKAGGSLRLSCAASGYIFRFYALGWYRQAPGKERELVAAISRSGSRTYYADSVKGRFTISRDNAKNTVYLQMNSLKPEDTAVYYCAAVTRGLRFDYWGQGTQVTVSS”, the “polyreactivity (PSR sort gate)” value was “high polyreactivity”.

“QVQLVESGGGLVQAGGSLRLSCAASGRTFREYAMGWYRHAPGKEREFVAAISESVGSTYYADSVKGRFTISRDNAKNTVYLQMNSLKPEDTAVYYCAKQSRYPSLDADYDYWGQGTQVTVSS”: the “polyreactivity (PSR sort gate)” value was “low polyreactivity”.

On to “QVQLVESGGGLVQAGGSLRLSCAASGFIFVRYAMGWSRPAPGKERELVDAISGSGGRTYYADSVKGRFTISRDNAKNTVYLQMNSLIPEDTAVYYCNVKSYTYGYLPYDYWGQGTQVTVSS”, for which the “polyreactivity (PSR sort gate)” value was “high polyreactivity”.

Consider “QVQLVESAVGLVQAGGSLRLSSAASGFTFPLYAMGWYRQEHGKEREFVPVISRSGGSTYYADSVKGRFTISRDNAKNTVYLQMNSLKPEDTAVYYCAARLVPRSPERGNYDYWGQGTQVTVSS”, for which the “polyreactivity (PSR sort gate)” value is listed as “high polyreactivity”.

For “QVQLVETGGGLVQAGGSLRLSCAASGRTLSQNTMGWNRQAPRKEREFVASITYSGGITYYADSVKGRFTISRDNAKNTVYLQMNSLKPEDTAVYYCNKRGSHYWYSYPGDYWGQGTQVTVSS”, the “polyreactivity (PSR sort gate)” value is “low polyreactivity”.

With “QVQLVETGGGLVQAGGSLRLSCAASGRTFQYYAMGWYRQATGTERELVAAITSGGSTYYADSVKGRFTISRDNAKKTVYLQMNSLKPEDTAVSYCAATFYYSGHDDYWGQVTQVTVSS”, the “polyreactivity (PSR sort gate)” value was “low polyreactivity”.

As to “QVQLVESGGGLVQAGGSLRLSCAASGRIFGGYAMGWYRQAPGKERELVAAIRDSGRTYYADSVKGRFTISRDNEKNTVYLQMNRLKPEDTAVYYCAADAHSSYSPFRWYDYWGQGSQVTVSS”, the “polyreactivity (PSR sort gate)” value was “low polyreactivity”.

In the case of “QVQQQESGGGLVQAGGSLRLSCAASGTIFQLTVMGRYRQAPGKERELVASIDYGGNTNYADSVKGRFTISRDNAKNTVYLQMNSLKPEDTAVYYCAASSDSWTTHPYWGQGTQGTVSS”, the “polyreactivity (PSR sort gate)” value was “low polyreactivity”.

As for “QVQLVESGGGLVQAGGSLRLSCAASGSTFVRYPMGWYRPAPGKERELVAGISRVGNTYYADSVKGRFTISRDNAKNTVYLQMNSLKPEDTAVYYCAARSSRWDGYDYWGQGTQVTVSS”, the “polyreactivity (PSR sort gate)” value was “high polyreactivity”.

As to “QVQLVESGGGLVQAGGSLRLSCAASGFTFRVYAMGWYRQAPGKERELVAAITQRGGSTYYADSVKGRFTISRDNSKNTVYLQMNRLNTEDTAVYYCNKFAGQPTYDYWGQGTQVTVSS”, the “polyreactivity (PSR sort gate)” value is given as “high polyreactivity”.

Take “QVQHVESGGGLVQAGGSLRLSCAASGSILDIYAMGWYRQATGKERELVAAITGGGSTNYADSVNGRFTISRDNAKNTVYLLMNSLKPEDTAVYYCAAGTYLNGGGEYWGQGTQVTVSS”: the “polyreactivity (PSR sort gate)” value is “low polyreactivity”.

For the sequence “QVQLVESGGGLVQAGGSLRLSCAASGRIFRLNAMGWYRQAPGKERELVAAITVSDSSTYADSVKGRFTISRDNAKNTVYLQMNSLKPEDTAVYYCNRDTYTEYAHSWRGWSVIFDYWGQGTQVTVSS”, the “polyreactivity (PSR sort gate)” value was “high polyreactivity”.

As for “QVQLVESGGGLVQAGGSLRLSCAASGFIFWYYAMGWYRQAPGKERELVATITRGGSTYYADSVKGRFTISRDNAKNTFYLQMNSLKPEDTAVYYCNAVRPKIYDYWGQGTQVTVSS”, the “polyreactivity (PSR sort gate)” value was “high polyreactivity”.

On to “QVQLVESGAGLVQAGGSLRLSCAASGIIFDWYTMGWYRQAPGKERELVAAISWRGGRTYYADSVKGRFTISRDNAKNTVYLQMNSLKPEDTAVYYCAAEAPVQPFYVFNTGIYELDYWGQGTQVTVSS”, for which the “polyreactivity (PSR sort gate)” value is “low polyreactivity”.

With “QVQLVESGGGLVQAGGSLRLSCAASGMTFHRYAMGWYRQTPGKERELVAAINYSGGRTYYADSVKGRFTISRDNAKNTVYLQMNSLKPEDTAVYYCAAPRASGYYWGQGTQVTVSS”, the “polyreactivity (PSR sort gate)” value is reported as “high polyreactivity”.

In the case of “QVQLVESGGRLVQSGGSLRLSCAASGNTFIPNAMGWYRQAPGKERELVAAIRASGGSTYYADSVKGRFTISRDNAKNTVYLQMNSLKPEDTAVYYCNADIWYKTYDYWGQGTQVTVSS”, the “polyreactivity (PSR sort gate)” value is listed as “low polyreactivity”.

For “QVQLVESGGGIVQAGGRLRLSCAASGMIFYFYALGWYRPAPGKERELVAAITSGARTYYADSVKGRFTISRDNAKNTVYLQINSLKPEDTAVYYCAADVKRDRVWGGDYWGQGTQVTVSS”, the “polyreactivity (PSR sort gate)” value is reported as “low polyreactivity”.

Take “QVQLVESGGGLVQAGGSLRLSCAASGLIFPWNAMGWYRQAPGKERELVAAINGRDGSTYYADSVKGRFTISRDNAKNTVYLQMNSLKPEDTAVYYCAKGPSGVRTYREYDSWGQGTQVTVSS”: the “polyreactivity (PSR sort gate)” value was “low polyreactivity”.

On to “QVQLVESGGGLVQAGGSLRLSCAASGSILESNVMGWYRQAPGKERELVASISSSGDSTYADSVKGRFTISRDNAKNTVYLQMNSLKPEDTAVYYCNADRTQDRNPYTYATFDYWGQGTQVTVSS”, for which the “polyreactivity (PSR sort gate)” value is on record as “low polyreactivity”.

Consider “QVQLVESGGGLVQAGGSLRLSCAASGSIFYPNVMGWYRQAPGKERELVATISRGGTTNYADSVKGRFTISRDNAKNTVYLQMNRLKPEDTAVYYCAAPIGDVYVGKGYDSWGQGTQVTVSS”, for which the “polyreactivity (PSR sort gate)” value is listed as “low polyreactivity”.

As for “QVQLVESGGGLVQAGGSLRLSSAASGSIFFEYAMRWSRQAPGNEREWVASINRGGGSTYYADSVKGRFTISRDNAKNTVYLQMNSLKPEDTAVYYCAAQWKYRQSYLDYYWGQGTQVTVSS”, the “polyreactivity (PSR sort gate)” value is reported as “low polyreactivity”.

Take “QVQLVESGGGLVQAGGSLRLSCAASGSTFAYYTMGWYRQAPGKERELVAAISAGGGSTYYADSVKGRFTISRDNAKNTVYLQMNSLKPEDTAVYYCAVRVLIHTNTRRLDYWGQGTQVTVSS”: the “polyreactivity (PSR sort gate)” value is given as “high polyreactivity”.

“QVQLVESGGGLVQAGGSLRLSCAASGFTFVNHAMGWYRQAPGKERELVAAISGGRTTNYADSVKGRFTISRDNAKNTVYLQMNSLKPEDTAVYYCAARRYFGLWYFWYDYWGQGTQVTVSS”: the “polyreactivity (PSR sort gate)” value is listed as “high polyreactivity”.

As for “QVQLVESGGGLVQAGGSLRLSCAASGRIFRYYAMGWYRQAPGKERELVAAISSGVGNTYYADSVKGRFTISRDNAKNTVYVQMNSLKPEDTAVFYCKAKWRKFGTVRYDYWGQGTQVTVSS”, the “polyreactivity (PSR sort gate)” value was “high polyreactivity”.

Consider “QVQLVESGGGLVQAGGSLRLSCAASGLIFARNALGWYRQAPGKERELVAAISWRSGRTYYADSVKGRFTISRDNAKNTVYLQMNSLKPEDTAVYYCAATSRTSWYGYWGQGTQVTVSS”, for which the “polyreactivity (PSR sort gate)” value is “high polyreactivity”.

On to “QVQLEESVGGLVQAGGSLRIICAASGSIFSVNSIGWSRQAPGKERELVAAITRDSGSTNYADSVKGRFTISRDNAKNTVYLQMNSLKPEDTAVYYCAADFYYNVSTTIVNFSYDYWGHGTQVTVSS”, for which the “polyreactivity (PSR sort gate)” value is “high polyreactivity”.

In the case of “QVQLVESGGGLGQAGGSLRLSCAASGITYDGYAMGWYRQAPGKERELVAAITYSGGRTYYADSVKGRFTISRDNAKNTVYLQMNSLKPEDTAVYYCAVVSRRLYEYDYWGQGTQVTVSS”, the “polyreactivity (PSR sort gate)” value is recorded as “high polyreactivity”.

Consider “QVQIVESGGGLVQAGGSLRLSCAASGRIFTYNAMGWSRQAPGKERELVAAITRGGTTNYADSVKVRFTISRDNAKNTVYLQMNSLKPEDTAVSYCARAGAHPWWSRSTMYYWGQGTQVTVSS”, for which the “polyreactivity (PSR sort gate)” value is reported as “low polyreactivity”.

As for “HVQLVESGGGLVQAGGSLRLSCAASGSTLYWNAIGWYRQAPGKEMELVASITSSGGSTYYADSVKGRFTISRDNAKNTVYLQMNSLKPEDTAVYYCATESWWRYSEYYYWGQGTQVTVSS”, the “polyreactivity (PSR sort gate)” value was “low polyreactivity”.

For the sequence “QVQLVESGGGLVQAGGSLRLSCAASGRIFWYYAMGWYRQAPGKEREFVAAITRRGGSTYYADSVKGRFTISRDNAKNTVYLQMNSLKPEDTAVYYCAAVGQKRSLGYSWGQGTQVTVSS”, the “polyreactivity (PSR sort gate)” value is reported as “low polyreactivity”.

As for “QVQLVESGGGLVQAGGSLRLSCAASGFIFLHYAMGWYRKAPGKERELVAGIDSSVDSTFYADSVKGRFTISRDNAKNTVYLQMNSLKPEDTAVYYCAKDPDLDYYLYYYWGQGTQVTVSS”, the “polyreactivity (PSR sort gate)” value is “low polyreactivity”.

(Values after the nanobody polyreactivity screen of Harvey et al. (2022).)
